Paper PMC4808650
Like-named read-outs stand apart in the source and are kept apart here.

How the values were obtained:
[1] = molecular target: Chlamydomonas outer arm axonemal dynein, α and β HC complex from strain oda2-t-lc2-bccp (Chlamydomonas reinhardtii) (UniProt Q39565)
[2] = molecular target: Chlamydomonas outer arm axonemal dynein, α and β HC complex from strain oda2-t-lc2-bccp (Chlamydomonas reinhardtii) (UniProt Q39565); remark: listed apart in the source

UniProt Q39565, sequence (Q39565 whole entry, looked up, one chain of several): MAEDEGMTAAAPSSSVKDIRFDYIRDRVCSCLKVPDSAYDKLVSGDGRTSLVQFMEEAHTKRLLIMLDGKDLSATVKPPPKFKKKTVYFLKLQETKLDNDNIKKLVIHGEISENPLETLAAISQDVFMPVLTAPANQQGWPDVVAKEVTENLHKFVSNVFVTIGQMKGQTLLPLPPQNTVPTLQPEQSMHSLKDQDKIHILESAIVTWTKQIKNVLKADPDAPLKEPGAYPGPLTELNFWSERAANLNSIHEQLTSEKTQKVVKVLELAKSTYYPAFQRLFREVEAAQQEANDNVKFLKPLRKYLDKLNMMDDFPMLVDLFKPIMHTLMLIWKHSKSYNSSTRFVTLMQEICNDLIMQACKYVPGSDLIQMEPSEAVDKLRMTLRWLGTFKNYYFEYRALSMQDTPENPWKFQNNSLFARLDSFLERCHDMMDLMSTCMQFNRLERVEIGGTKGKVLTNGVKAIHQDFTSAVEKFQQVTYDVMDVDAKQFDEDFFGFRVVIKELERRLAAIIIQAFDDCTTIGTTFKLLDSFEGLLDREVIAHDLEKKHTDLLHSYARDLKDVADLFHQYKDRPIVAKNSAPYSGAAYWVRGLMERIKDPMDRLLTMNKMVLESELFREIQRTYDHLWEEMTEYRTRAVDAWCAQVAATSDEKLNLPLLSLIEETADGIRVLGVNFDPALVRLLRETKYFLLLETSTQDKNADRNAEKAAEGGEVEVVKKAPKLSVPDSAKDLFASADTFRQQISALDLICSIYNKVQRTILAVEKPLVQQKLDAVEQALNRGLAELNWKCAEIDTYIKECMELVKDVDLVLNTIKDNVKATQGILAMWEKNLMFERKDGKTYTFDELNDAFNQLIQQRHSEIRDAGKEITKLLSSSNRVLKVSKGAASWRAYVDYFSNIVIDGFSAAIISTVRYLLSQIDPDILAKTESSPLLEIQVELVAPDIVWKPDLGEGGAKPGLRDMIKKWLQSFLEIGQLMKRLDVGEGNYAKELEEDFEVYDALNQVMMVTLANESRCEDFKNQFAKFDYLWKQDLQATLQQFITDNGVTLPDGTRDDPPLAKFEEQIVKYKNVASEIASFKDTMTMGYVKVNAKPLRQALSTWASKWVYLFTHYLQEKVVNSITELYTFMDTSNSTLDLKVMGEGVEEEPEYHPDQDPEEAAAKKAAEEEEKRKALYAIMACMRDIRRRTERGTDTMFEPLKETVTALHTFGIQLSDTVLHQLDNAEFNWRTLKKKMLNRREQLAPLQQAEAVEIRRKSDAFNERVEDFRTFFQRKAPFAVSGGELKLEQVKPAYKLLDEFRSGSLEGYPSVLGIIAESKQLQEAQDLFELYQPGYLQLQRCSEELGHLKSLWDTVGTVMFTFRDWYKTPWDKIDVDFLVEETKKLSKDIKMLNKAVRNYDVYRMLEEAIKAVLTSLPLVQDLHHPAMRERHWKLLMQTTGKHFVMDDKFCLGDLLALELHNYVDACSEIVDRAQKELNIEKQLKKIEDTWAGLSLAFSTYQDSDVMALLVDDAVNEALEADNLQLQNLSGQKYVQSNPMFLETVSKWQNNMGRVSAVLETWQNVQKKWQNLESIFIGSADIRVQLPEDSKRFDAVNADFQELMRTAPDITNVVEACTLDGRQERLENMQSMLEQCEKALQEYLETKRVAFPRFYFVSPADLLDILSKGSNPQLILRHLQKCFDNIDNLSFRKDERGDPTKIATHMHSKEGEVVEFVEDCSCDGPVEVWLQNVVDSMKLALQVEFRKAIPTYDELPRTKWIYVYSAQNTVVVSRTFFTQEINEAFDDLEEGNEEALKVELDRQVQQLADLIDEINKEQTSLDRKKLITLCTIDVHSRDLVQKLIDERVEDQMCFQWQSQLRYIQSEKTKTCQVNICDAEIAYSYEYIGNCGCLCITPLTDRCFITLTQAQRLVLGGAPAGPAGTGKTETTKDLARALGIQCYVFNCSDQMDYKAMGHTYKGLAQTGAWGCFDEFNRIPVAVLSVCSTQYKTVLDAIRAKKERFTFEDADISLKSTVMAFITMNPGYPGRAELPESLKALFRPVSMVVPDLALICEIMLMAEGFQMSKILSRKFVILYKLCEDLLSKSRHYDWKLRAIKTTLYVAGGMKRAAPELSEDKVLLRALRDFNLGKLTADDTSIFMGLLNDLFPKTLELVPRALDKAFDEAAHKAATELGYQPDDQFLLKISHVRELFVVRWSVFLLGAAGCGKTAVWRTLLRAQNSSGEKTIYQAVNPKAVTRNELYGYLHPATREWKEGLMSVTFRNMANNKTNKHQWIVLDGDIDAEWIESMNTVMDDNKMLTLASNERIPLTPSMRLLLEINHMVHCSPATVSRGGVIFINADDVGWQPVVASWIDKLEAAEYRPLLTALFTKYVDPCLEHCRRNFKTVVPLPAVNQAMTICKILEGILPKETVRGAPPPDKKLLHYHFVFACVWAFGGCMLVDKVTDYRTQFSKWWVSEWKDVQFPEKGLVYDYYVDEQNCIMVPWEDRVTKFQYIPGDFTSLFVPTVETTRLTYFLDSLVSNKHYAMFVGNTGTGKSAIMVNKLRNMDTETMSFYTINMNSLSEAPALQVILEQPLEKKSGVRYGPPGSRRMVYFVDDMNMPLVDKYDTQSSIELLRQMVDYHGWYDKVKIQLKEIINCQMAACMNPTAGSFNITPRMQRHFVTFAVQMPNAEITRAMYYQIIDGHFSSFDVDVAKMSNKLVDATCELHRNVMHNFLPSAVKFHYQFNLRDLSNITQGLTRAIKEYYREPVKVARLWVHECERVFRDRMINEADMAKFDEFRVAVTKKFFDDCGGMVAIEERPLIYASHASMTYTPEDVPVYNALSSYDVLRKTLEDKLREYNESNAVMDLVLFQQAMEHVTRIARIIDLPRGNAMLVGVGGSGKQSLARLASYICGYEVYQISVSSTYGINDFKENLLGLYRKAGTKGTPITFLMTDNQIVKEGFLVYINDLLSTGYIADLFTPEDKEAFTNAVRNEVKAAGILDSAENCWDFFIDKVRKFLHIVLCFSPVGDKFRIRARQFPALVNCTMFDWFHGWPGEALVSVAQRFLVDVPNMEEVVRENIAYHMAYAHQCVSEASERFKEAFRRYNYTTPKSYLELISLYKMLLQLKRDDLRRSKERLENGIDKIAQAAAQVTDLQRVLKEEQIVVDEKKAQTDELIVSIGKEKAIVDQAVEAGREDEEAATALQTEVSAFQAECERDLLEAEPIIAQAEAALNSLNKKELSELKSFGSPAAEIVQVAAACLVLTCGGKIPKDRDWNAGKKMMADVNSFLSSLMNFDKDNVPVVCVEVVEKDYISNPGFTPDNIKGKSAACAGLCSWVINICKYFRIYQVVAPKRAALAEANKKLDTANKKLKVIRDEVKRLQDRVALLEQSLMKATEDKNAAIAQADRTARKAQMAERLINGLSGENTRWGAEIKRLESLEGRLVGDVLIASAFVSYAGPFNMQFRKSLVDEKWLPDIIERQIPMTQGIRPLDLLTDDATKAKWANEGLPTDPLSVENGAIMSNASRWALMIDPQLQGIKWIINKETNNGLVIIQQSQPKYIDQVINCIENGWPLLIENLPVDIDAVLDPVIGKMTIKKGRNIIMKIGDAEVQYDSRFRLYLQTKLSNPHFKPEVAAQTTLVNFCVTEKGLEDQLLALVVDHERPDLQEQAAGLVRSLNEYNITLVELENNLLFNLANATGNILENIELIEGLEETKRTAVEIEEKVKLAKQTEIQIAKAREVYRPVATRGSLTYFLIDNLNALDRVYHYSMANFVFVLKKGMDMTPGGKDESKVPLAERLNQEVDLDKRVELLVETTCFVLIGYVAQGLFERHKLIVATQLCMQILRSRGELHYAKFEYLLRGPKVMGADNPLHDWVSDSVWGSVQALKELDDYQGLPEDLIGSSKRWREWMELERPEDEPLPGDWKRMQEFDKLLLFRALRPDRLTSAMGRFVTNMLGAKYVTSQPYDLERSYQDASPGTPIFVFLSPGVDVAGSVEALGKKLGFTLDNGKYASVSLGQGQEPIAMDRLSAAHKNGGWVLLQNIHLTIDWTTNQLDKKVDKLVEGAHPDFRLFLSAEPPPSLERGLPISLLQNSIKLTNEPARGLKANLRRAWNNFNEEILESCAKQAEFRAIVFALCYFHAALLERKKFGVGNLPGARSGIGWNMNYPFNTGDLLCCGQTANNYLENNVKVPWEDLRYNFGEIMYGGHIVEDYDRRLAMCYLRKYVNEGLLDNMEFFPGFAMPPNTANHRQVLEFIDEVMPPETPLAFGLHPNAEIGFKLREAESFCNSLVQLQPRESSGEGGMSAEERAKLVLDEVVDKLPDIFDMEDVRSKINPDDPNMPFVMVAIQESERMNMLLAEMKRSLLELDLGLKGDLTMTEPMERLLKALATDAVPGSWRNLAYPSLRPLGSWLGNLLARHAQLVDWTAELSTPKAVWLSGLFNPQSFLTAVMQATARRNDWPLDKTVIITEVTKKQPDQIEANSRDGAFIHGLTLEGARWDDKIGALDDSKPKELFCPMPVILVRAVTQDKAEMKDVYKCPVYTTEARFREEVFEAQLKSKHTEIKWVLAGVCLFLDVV

Row | Substance | L0 of microtubule gliding (microtubule length at vmax/2) [1] [μm] | vmax of microtubule gliding on dynein-coated slides (fit to Eq. 1) [1] [μm/s] | vmax of microtubule gliding on dynein-coated slides (fit to Eq. 1) [2] [μm/s]
1 | Chlamydomonas axonemal microtubules, untreated (complex) | 0.43 | 2.09 | –
2 | αs-βs-tubulin porcine microtubules (200 μg/mL subtilisin) (complex) | – | – | 2.27
3 | Chlamydomonas axonemal microtubules from SIRT2-deacetylated tubulin (complex) | 0.39 | 1.66 | –
4 | α-βs-tubulin porcine microtubules (10 μg/mL subtilisin) (from UniProt P02550 1-451) (complex) | – | – | 1.93
5 | porcine brain microtubules, untreated (α-β-tubulin microtubules) (from UniProt P02550 1-451; P02554 1-445) (complex) | – | – | 1.7
